In publication PMC6188894 one finds response and percent of transfected (mCherry-positive) cells with BiFC signal data, which are given here for 11 substances.

Sequence of VN-TFIIEβ (TFIIEβ fused to the N-terminal fragment of Venus, pCS2VNm9) (Drosophila) (O96881 entry or part of it): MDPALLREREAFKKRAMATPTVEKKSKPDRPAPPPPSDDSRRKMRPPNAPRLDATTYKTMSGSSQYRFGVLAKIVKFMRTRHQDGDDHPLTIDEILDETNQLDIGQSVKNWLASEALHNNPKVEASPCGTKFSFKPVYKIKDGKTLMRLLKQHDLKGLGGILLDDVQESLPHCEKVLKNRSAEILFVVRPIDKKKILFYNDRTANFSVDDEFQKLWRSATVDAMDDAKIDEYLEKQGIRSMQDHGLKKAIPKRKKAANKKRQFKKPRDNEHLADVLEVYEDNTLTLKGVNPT

The first experiment has as its target VN-TFIIEβ (TFIIEβ fused to the N-terminal fragment of Venus, pCS2VNm9). Briefly: BiFC. The following applies: cell culture; pCAG-Cherry co-transfected as a control.
“VC-Antp (wild-type Antennapedia fused to the C-terminal fragment of Venus, pCS2VC155) (from UniProt P02833) I32L”: the response was found to be 31%.

For “VC-Antp (wild-type Antennapedia fused to the C-terminal fragment of Venus, pCS2VC155) (from UniProt P02833) I32A”, the response came to 29%.

“VC-Antp (wild-type Antennapedia fused to the C-terminal fragment of Venus, pCS2VC155) (from UniProt P02833) H36R” displayed a response of 32%.

The next experiment has as its target VN-TFIIEβ (TFIIEβ fused to the N-terminal fragment of Venus, pCS2VNm9) (Drosophila). Description: split reporter (BiFC, NanoBiT); BiFC with split Venus (VC and VN fusions) in co-transfected HEK293 cells, read 48 h after transfection by confocal microscopy; percent = Venus-fluorescent cells in one hundred mCherry-positive cells, three independent experiments.
Details: not given
Take “VC-AntpΔH1 (Antp with helix 1 of the HD deleted) (from UniProt P02833 1-378) (natural protein)”: the percent of transfected (mCherry-positive) cells with BiFC signal came out at 74%. “VC-AntpΔH1-2 (Antp with helices 1 and 2 of the HD deleted) (from UniProt P02833 1-378) (natural protein)” registered a percent of transfected (mCherry-positive) cells with BiFC signal of 15%. On the same count and under the same terms, for “VC-Antp^AAAA (Antp with the YPWM motif replaced with alanines) (from UniProt P02833 1-378) (natural protein)” the value was 76%; for “VC-AntpHD (Antp homeodomain construct fused to the C-terminal fragment of Venus, pCS2VC155) (domain or fragment)”, 75%. Still for that read-out and setting: the figure for “VC-Antp (wild-type Antennapedia fused to the C-terminal fragment of Venus, pCS2VC155) (from UniProt P02833 1-378) (natural protein)” is 78%; for “VC-AntpΔHD (Antp with the homeodomain deleted) (from UniProt P02833 1-378) (natural protein)” it is 26%.

Substance VC-Antp^I32L-H36R (natural protein) showed a percent of transfected (mCherry-positive) cells with BiFC signal of 13%.

The next experiment concerns the target EXD (BiFC partner in HEK293 cells) (Drosophila) (UniProt P40427). Described as above.
Sequence of UniProt P40427 (P40427 whole entry): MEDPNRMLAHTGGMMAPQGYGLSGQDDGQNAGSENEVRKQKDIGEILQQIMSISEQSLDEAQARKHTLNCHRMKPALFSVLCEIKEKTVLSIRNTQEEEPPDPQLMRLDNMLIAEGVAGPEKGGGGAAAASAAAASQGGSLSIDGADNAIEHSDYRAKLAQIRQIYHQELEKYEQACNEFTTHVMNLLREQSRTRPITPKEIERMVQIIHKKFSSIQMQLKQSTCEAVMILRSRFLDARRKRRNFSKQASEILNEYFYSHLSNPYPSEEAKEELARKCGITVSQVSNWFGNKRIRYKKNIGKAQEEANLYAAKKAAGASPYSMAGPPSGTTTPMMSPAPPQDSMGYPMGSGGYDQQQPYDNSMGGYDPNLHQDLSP
Details: not given
For “VC-Antp^I32A-H36A (in HEK293 cells) (natural protein)”, the percent of transfected (mCherry-positive) cells with BiFC signal was found to be 79%.
